The text below walks through data of patent US20070134693A1 (published 2007).

This assay deals with T1, M-tropic HIV-1MN envelope glycoprotein gp120 (HIV-1 MN, UniProt P05877 32-513).
T1 construct: also called HIV-1 gp120; HIV-MN gp120
Description: fluorescent bead adhesion assay on K562-DC-SIGN cells.

B1: DC-SIGN (receptor)
chain: MSDSKEPRLQQLGLLEEEQLRGLGFRQTRGYKSLAGCLGHGPLVLQLLSFTLLAGLLVQVSKVPSSISQEQSRQDAIYQNLTQLKAAVGELSEKSKLQEIYQELTQLKAAVGELPEKSKLQEIYQELTRLKAAVGELPEKSKLQEIYQELTWLKAAVGELPEKSKMQEIYQELTRLKAAVGELPEKSKQQEIYQELTRLKAAVGELPEKSKQQEIYQELTRLKAAVGELPEKSKQQEIYQELTQLKAAVERLCHPCPWEWTFFQGNCYFMSNSQRNWHDSITACKEVGAQLVVIKSAEEQNFLQLQSSRSNRFTWMGLSDLNQEGTWQWVDGSPLLPSFKQYWNRGEPNNVGEEDCAEFSGNGWNDDKCNLAKFWICKKSAASCSRDEEQFLSPAPATPNPPPA
notes: whole, on cells; also called K562-DC-SIGN; THP-1-DC-SIGN
For B1, the binding result is “binds”.
